We go through one molecule from paper PMC3436176 (The Journal of Biological Chemistry, 2012).

The assay has as its target T1, GPVI-Fc2 (GPVI dimer) (Homo sapiens, UniProt Q9HCN6).
T1 sequence (Q9HCN6 21-214 limits assumed): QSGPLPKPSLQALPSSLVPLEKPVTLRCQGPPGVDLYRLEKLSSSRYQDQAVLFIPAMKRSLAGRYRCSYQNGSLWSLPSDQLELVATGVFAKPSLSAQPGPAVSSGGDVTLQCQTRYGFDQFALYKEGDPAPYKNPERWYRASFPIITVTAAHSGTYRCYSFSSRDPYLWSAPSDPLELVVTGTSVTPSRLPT
The assay is described as follows: ELISA: GPVI dimer binding to immobilized collagenous substrates. Background: ELISA stands for enzyme-linked immunosorbent assay.

B1: Collagen type III: Pepsin-treated bovine type III collagen from Koken (protein)
chain: EYEAYDVKSGVAGGGIAGYPGPAGPPGPPGPPGTSGHPGAPGAPGYQGPPGEPGQAGPAGPPGPPGAIGPSGKDGESGRPGRPGPRGFPGPPGMKGPAGMPGFPGMKGHRGFDGRNGEKGEPGAPGLKGENGVPGEDGAPGPMGPRGAPGERGRPGLPGAAGARGNDGARGSDGQPGPPGPPGTAGFPGSPGAKGEVGPAGSPGSSGAPGQRGEPGPQGHAGAPGPPGPPGSDGSPGGKGEMGPAGIPGAPGLIGARGPPGPPGTNGVPGQRGAAGEPGKNGAKGDPGPRGERGEAGSPGIAGPKGEDGKDGSPGEPGANGLPGAAGERGVPGFRGPAGANGLPGEKGPPGDRGGPGPAGPRGVAGEPGRNGLPGGPGLRGIPGSPGGPGSNGKPGPPGSQGETGRPGPPGSPGPRGQPGVMGFPGPKGNDGAPGKNGERGGPGGPGPQGPAGKNGETGPQGPPGPTGPSGDKGDTGPPGPQGLQGLPGTSGPPGENGKPGEPGPKGEAGAPGIPGGKGDSGAPGERGPPGAGGPPGPRGGAGPPGPEGGKGAAGPPGPPGSAGTPGLQGMPGERGGPGGPGPKGDKGEPGSSGVDGAPGKDGPRGPTGPIGPPGPAGQPGDKGESGAPGVPGIAGPRGGPGERGEQGPPGPAGFPGAPGQNGEPGAKGERGAPGEKGEGGPPGAAGPAGGSGPAGPPGPQGVKGERGSPGGPGAAGFPGGRGPPGPPGSNGNPGPPGSSGAPGKDGPPGPPGSNGAPGSPGISGPKGDSGPPGERGAPGPQGPPGAPGPLGIAGLTGARGLAGPPGMPGARGSPGPQGIKGENGKPGPSGQNGERGPPGPQGLPGLAGTAGEPGRDGNPGSDGLPGRDGAPGAKGDRGENGSPGAPGAPGHPGPPGPVGPAGKSGDRGETGPAGPSGAPGPAGSRGPPGPQGPRGDKGETGERGAMGIKGHRGFPGNPGAPGSPGPAGHQGAVGSPGPAGPRGPVGPSGPPGKDGASGHPGPIGPPGPRGNRGERGSEGSPGHPGQPGPPGPPGAPGPCCGAGGVAAI
With B1, the “Kd (monomer)/Kd (dimer)” value (binding to collagenous substrates) is 236.7. In addition, the “Hill coefficient for dimer binding” value (mean ± S.E., n = 4-12 as printed) is 1.16 ± 0.11.
